Source: paper PMC8844826 (iScience, 2022)
Ends that are not written are not given here. TAMRA = 5 (and 6)-carboxytetramethylrhodamine

Assays:
[1] = target: T1, full length PSD-95 (FL-PSD-95, 1-724) (human, UniProt P78352 1-724); assay: fluorescence polarisation; saturation binding: increasing protein, fixed fluorescently labeled peptide; 50 mM Tris (pH 8.0), 300 mM NaCl, 10 mM EDTA, 1 mM TCEP; 20 min on ice; details: both partners purified
T1 construct: construct 32M3C-PSD-95 FL 1-724 from Zeng et al. (2016a); A PreScission 3C site follows the tags; For the arrays 0.1 uM of 1 uM was labelled with Alexa 633 (maleimide); also called PSD protein 95; 32M3C-PSD-95 FL; source: E. coli BL21-DE3-pLysS, purified (HisTrap, SEC)

GST-Arc 195-364 (rat) = target: T2, GST-Arc 195-364 (rat) (rat, UniProt Q63053 195-364); assay: as above; details: both partners purified
T2 construct: rat Arc residues 195-364, Uniprot Q63053; GST is followed by a thrombin and a factor Xa site; the protein was eluted with glutathione and no cleavage is described; also called pGEX4T1-Arc 195-364; source: E. coli BL21-DE3-pLysS, purified (Glutathione Sepharose, SEC)
T2 sequence (looked up): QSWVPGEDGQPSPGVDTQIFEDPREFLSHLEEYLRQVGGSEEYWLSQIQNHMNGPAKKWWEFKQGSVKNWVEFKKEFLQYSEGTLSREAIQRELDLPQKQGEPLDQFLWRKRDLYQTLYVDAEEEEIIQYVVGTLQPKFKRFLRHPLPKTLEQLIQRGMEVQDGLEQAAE

T1 sequence (P78352 whole entry): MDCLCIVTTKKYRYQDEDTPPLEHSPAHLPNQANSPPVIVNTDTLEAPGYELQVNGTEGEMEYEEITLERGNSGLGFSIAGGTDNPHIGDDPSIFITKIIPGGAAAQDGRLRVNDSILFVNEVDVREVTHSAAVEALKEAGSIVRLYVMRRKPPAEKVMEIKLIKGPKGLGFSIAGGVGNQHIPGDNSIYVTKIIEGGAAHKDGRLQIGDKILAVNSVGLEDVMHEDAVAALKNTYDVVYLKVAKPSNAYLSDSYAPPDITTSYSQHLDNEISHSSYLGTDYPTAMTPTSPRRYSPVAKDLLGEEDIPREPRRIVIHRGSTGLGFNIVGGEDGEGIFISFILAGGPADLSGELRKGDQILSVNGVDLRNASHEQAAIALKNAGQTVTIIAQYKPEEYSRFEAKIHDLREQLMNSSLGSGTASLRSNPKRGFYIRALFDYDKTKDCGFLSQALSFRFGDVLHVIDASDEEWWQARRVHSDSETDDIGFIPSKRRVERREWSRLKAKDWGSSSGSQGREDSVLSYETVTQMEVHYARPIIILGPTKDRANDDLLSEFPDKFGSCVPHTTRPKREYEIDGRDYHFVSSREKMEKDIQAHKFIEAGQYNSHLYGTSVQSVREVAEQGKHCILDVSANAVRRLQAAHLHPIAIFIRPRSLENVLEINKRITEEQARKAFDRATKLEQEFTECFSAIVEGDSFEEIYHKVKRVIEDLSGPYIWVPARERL

- Kd [1]: 14.9 ± 3 µM
- Kd (GST-Arc 195-364 (rat)): 8.37 ± 1.25 µM
B1: TAMRA-G-A222ITRIPSYRYRYQRR236 (fluorescently labeled Stg A222-R236 peptide) (peptide)
peptide: {TAMRA}-GAITRIPSYRYRYQRR
notes: added glycine between TAMRA and A222; also called TMR labeled Stg_(A222-R236); source: synthetic peptide (in-house)
